Test [1] addresses T1, recombinant His-tagged insect-cell expressed CCR5, detergent-solubilised (UniProt P51681 1-352). Nature of the test: SPR; two binding site model, KD2 (second site). Background: Surface plasmon resonance follows binding to a sensor surface in real time, without labels.
The target in test [2] is T1, recombinant His-tagged insect-cell …. Nature of the test: SPR; 1:1 binding model.
Test [3] shares this target. Description: SPR; two binding site model, KD1.

T1 sequence (P51681 whole entry): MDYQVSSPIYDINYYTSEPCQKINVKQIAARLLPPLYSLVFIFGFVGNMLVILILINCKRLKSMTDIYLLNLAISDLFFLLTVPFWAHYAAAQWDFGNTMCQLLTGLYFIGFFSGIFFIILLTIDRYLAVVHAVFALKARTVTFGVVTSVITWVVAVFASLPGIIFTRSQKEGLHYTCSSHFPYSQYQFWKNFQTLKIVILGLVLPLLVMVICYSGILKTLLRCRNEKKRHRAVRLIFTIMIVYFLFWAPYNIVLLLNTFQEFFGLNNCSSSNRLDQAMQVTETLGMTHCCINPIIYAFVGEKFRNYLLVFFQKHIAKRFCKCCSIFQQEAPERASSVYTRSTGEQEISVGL

B1: visfatin (recombinant) (natural protein)
chain: MNPAAEAEFNILLATDSYKVTHYKQYPPNTSKVYSYFECREKKTENSKLRKVKYEETVFYGLQYILNKYLKGKVVTKEKIQEAKDVYKEHFQDDVFNEKGWNYILEKYDGHLPIEIKAVPEGFVIPRGNVLFTVENTDPECYWLTNWIETILVQSWYPITVATNSREQKKILAKYLLETSGNLDGLEYKLHDFGYRGVSSQETAGIGASAHLVNFKGTDTVAGLALIKKYYGTKDPVPGYSVPAAEHSTITAWGKDHEKDAFEHIVTQFSSVPVSVVSDSYDIYNACEKIWGEDLRHLIVSRSTQAPLIIRPDSGNPLDTVLKVLEILGKKFPVTENSKGYKLLPPYLRVIQGDGVDINTLQEIVEGMKQKMWSIENIAFGSGGGLLQKLTRDLLNCSFKCSYVVTNGLGINVFKDPVADPNKRSKKGRLSLHRTPAGNFVTLEEGKGDLEEYGQDLLHTVFKNGKVTKSYSFDEIRKNAQLNIELEAAHH
As to B1, the figures for the Kd in test [1], in test [2] and in test [3] were 600 nM, 5000 nM and 2 nM, respectively.

The values are drawn from paper PMC3320877 (2012).
